The target of data set [1] is Native M. bovis BCG Moreau dodecin (M. bovis BCG Moreau (endogenous)). The data set can be described thus: SDS-PAGE and western blotting of oligomer bands; logarithmic phase mycobacterial lysates incubated 30 min at 40 or 80 °C, supernatants on SDS-PAGE, blot with anti-dodecin serum. In general terms: In western blotting, separated proteins are transferred to a membrane and probed.

The target is the same in data set [2]. The data set can be described thus: SDS-PAGE and western blotting of oligomer bands; 20 ug total proteins of mycobacterial whole cell lysates (lag, logarithmic and stationary phase; 50 mM HEPES/KOH pH 7.5, 10 mM MgCl2, 60 mM NH4Cl, 10% glycerol), 15% SDS-PAGE, blot with anti-dodecin serum.
Data set [3] addresses Recombinant M. bovis BCG Moreau dodecin with C-terminal 6-His tag (M. bovis BCG Moreau). The data set can be described thus: SDS-PAGE and western blotting of oligomer bands.
Data set [4] shares this target. The data set can be described thus: SDS-PAGE and western blotting of oligomer bands. The source holds these as a separate data set.
For data set [5], the target named is Recombinant M. tuberculosis H37Rv dodecin with C-terminal 6-His tag (Mycobacterium tuberculosis H37Rv) (UniProt I6XY36). The data set can be described thus: SDS-PAGE and western blotting of oligomer bands.
The target is the same in data set [6]. The data set can be described thus: SDS-PAGE and western blotting of oligomer bands. The source holds these as a separate data set.
Data set [7] concerns the molecule itself. The data set can be described thus: SDS-PAGE and western blotting of oligomer bands; 20 ug total proteins of mycobacterial whole cell lysates (lag, logarithmic and stationary phase; 50 mM HEPES/KOH pH 7.5, 10 mM MgCl2, 60 mM NH4Cl, 10% glycerol), 15% SDS-PAGE, blot with anti-dodecin serum.

Like-named read-outs stand apart in the source and are kept apart here.

With “Native M. bovis BCG Moreau dodecin (natural protein)”, the stoichiometry N in data set [1] and in data set [2] was 6 throughout.
For “Recombinant M. bovis BCG Moreau dodecin with C-terminal 6-His tag (natural protein)”, the stoichiometry N (in general, the number of molecules, sites or subunits per partner or assembly) in data set [3] came out at 12; in data set [4], 4.
With “Recombinant M. tuberculosis H37Rv dodecin with C-terminal 6-His tag (from UniProt I6XY36 1-70) (natural protein)”, the stoichiometry N in data set [5] turned out to be 4; in data set [6] it was 12.

B1: Native M. tuberculosis H37Rv dodecin (natural protein)
chain: MSNHTYRVIEIVGTSPDGVDAAIQGGLARAAQTMRALDWFEVQSIRGHLVDGAVAHFQVTMKVGFRLEDS
notes: also called M.tb native dodecin; Tb
B1: the “stoichiometry N” value in data set [7] is 6.

Values taken from PMC8044443, “M. bovis BCG Moreau N-Terminal Loss Leads to a Less Stable Dodecin With Lower Flavin Binding Capacity” (Frontiers in Cellular and Infection Microbiology, 2021).
